The numbers were not newly measured in paper PMC12582428, which cites them from elsewhere.

Data set [1] deals with Neuropeptide Y (Homo sapiens) (UniProt P01303).
Data set [2] shares this target. The source holds these as a separate data set.

pKd: −log10 of the molar value. Like-named read-outs stand apart in the source and are kept apart here.

Chain of Neuropeptide Y receptor Y1 (P25929 whole entry): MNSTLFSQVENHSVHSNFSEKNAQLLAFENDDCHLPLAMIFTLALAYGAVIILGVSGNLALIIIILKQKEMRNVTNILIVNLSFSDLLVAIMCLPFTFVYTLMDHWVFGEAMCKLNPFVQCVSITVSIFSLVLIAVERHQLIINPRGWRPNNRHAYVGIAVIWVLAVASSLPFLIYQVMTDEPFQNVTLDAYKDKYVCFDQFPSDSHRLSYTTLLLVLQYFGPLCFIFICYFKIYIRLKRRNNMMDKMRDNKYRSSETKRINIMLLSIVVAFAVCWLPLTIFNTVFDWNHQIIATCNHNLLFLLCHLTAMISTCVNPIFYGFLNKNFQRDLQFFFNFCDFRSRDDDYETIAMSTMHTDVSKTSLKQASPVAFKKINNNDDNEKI
Chain of Neuropeptide Y receptor Y2 (P49146 whole entry): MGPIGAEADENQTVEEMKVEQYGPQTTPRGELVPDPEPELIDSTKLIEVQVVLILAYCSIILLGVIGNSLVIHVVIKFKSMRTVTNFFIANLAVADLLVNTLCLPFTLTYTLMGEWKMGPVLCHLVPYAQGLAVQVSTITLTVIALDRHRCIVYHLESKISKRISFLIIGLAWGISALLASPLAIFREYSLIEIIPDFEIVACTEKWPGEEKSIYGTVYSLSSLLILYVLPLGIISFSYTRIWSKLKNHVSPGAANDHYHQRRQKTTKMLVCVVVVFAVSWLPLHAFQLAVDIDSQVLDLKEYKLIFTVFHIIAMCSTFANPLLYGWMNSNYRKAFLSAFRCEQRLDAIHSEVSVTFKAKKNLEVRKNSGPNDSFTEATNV

Take “Neuropeptide Y receptor Y1 (from UniProt P25929)”: in data set [1], the pKd is 8.40. As to “Neuropeptide Y receptor Y2 (from UniProt P49146)”, in data set [2], the pKd is 9.92.
